B1: Rab proteins geranylgeranyltransferase component A 1 (Homo sapiens), P24386 (parent)
chain: MADTLPSEFDVIVIGTGLPESIIAAACSRSGRRVLHVDSRSYYGGNWASFSFSGLLSWLKEYQENSDIVSDSPVWQDQILENEEAIALSRKDKTIQHVEVFCYASQDLHEDVEEAGALQKNHALVTSANSTEAADSAFLPTEDESLSTMSCEMLTEQTPSSDPENALEVNGAEVTGEKENHCDDKTCVPSTSAEDMSENVPIAEDTTEQPKKNRITYSQIIKEGRRFNIDLVSKLLYSRGLLIDLLIKSNVSRYAEFKNITRILAFREGRVEQVPCSRADVFNSKQLTMVEKRMLMKFLTFCMEYEKYPDEYKGYEEITFYEYLKTQKLTPNLQYIVMHSIAMTSETASSTIDGLKATKNFLHCLGRYGNTPFLFPLYGQGELPQCFCRMCAVFGGIYCLRHSVQCLVVDKESRKCKAIIDQFGQRIISEHFLVEDSYFPENMCSRVQYRQISRAVLITDRSVLKTDSDQQISILTVPAEEPGTFAVRVIELCSSTMTCMKGTYLVHLTCTSSKTAREDLESVVQKLFVPYTEMEIENEQVEKPRILWALYFNMRDSSDISRSCYNDLPSNVYVCSGPDCGLGNDNAVKQAETLFQEICPNEDFCPPPPNPEDIILDGDSLQPEASESSAIPEANSETFKESTNLGNLEESSE
partner: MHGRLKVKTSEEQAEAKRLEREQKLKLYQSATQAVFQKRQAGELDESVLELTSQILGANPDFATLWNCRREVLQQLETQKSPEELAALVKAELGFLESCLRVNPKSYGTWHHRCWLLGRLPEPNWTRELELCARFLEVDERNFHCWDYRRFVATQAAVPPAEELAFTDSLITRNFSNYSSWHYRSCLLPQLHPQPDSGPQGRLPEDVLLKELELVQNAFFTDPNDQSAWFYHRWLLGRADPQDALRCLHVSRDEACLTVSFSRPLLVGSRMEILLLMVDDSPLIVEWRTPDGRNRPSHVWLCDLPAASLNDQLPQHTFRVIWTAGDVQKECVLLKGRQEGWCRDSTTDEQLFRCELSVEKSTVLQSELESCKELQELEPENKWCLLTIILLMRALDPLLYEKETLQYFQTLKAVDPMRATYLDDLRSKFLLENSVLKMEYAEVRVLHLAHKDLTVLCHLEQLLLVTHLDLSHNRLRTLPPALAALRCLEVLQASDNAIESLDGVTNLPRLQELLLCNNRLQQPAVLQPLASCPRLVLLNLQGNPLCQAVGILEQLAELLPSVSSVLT

Variants of: B1
Settings: with pgta_human RABGGTA

| Variant | effect of a mutation on the interaction |
| --- | --- |
| H507R | disrupting interaction |

From IntAct's records for PubMed 21905166
